For two molecules, stoichiometry N and Ki results are on record in paper PMC8207215.

In experiment [1] the target is recombinant human insulin-regulated aminopeptidase (IRAP), secreted soluble form (human) (UniProt Q9UIQ6). The experiment in a line: native gel or EMSA. A general note: A gel shift assay detects complexes by their altered migration in electrophoresis.
Experiment [2] has the same target. The experiment in a line: SEC.
Experiment [3] has the same target. The experiment can be described thus: enzyme inhibition assay.

Broadly, the stoichiometry N is the number of molecules, sites or subunits per partner or assembly. As for “recombinant human insulin-regulated aminopeptidase (IRAP), secreted soluble form (from UniProt Q9UIQ6 155-1025) (enzyme)”, the stoichiometry N in experiment [1] and in experiment [2] was 2 throughout.

B1: peptide inhibitor VYPWT (peptide)
peptide: VYPWT
A word on the Ki: it is a dissociation constant, usually derived from enzyme kinetics or from competition with a known ligand. With B1, in experiment [3], the inhibitory constant (Ki) came to 98 nM.
